Like-named read-outs stand apart in the source and are kept apart here.
B1: fkh[250con] (dsDNA)
DNA 1: GATCTCAATGTCAAGATTTATGGCCAGCTGTGGGACGA
DNA 2: CCTCGTCCCACAGCTGGCCATAAATCTTGACATTGAGA
B2: PrFHOX (dsDNA)
DNA 1: TGATGGCTTCCCTTATGATTTTTTGAATAATTTCTTTA
DNA 2: TATAAAGAAATTATTCAAAAAATCATAAGGGAAGCCAT
B3: PrFWT (dsDNA)
DNA 1: TGATGGCTTCCCTTATGATTTATTGAATAATTTCTTTA
DNA 2: TATAAAGAAATTATTCAATAAATCATAAGGGAAGCCAT
B4: PrFEXD (dsDNA)
DNA 1: TGATGGCTTCCCTTATAGTTTATTGAATAATTTCTTTA
DNA 2: TATAAAGAAATTATTCAATAAACTATAAGGGAAGCCAT

Tests used:
Test in all cases: EMSA
[1] = target: T1, Exd (Extradenticle);Ubx (Drosophila melanogaster?;Drosophila …, UniProt P40427;P83949 1-376;56-389, |)
T1 sequence (P40427 whole entry, chain 1 of 2): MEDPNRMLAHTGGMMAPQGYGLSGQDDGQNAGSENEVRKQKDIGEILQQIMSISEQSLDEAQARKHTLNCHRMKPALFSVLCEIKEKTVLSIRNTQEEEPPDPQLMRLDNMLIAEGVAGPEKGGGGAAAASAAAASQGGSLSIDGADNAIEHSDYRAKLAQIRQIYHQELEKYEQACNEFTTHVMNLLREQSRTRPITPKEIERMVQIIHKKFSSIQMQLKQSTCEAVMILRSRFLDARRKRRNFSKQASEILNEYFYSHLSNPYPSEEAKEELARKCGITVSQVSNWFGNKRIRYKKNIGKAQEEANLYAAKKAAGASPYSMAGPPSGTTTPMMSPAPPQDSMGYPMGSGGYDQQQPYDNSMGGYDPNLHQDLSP
T1 sequence (P83949 56-389, chain 2 of 2): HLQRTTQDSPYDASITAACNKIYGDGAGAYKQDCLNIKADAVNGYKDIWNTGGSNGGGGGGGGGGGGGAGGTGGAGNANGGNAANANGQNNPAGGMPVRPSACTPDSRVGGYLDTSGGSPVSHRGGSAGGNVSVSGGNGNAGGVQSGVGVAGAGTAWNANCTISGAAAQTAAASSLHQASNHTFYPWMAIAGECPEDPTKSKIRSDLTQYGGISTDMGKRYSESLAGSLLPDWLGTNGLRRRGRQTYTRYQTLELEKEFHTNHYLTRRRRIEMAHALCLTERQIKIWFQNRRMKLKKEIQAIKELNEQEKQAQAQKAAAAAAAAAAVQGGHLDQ

[2] = target: T1, Exd (Extradenticle);Ubx; remark: listed apart in the source
[3] = target: T1, Exd (Extradenticle);Ubx; remark: listed apart in the source

Binder	binding result [2]	also measured
B1		binding result [1]: binds
B2	no binding	
B3		binding result [3]: binds
B4	no binding	

From publication PMC3118927
